Assay results from patent publication US20230012273A1 (Boehringer Ingelheim, published 2023).

What was measured:
[1] = molecular target: T1, human SIRPαV1 extracellular domain + His-tag (NP_542970.1) (human, UniProt P78324 31-373); assay: SPR, Ab captured, ECD-His analyte
T1 construct: also called hSIRPαV1; HuSIRPαV1
How it was run: (§1)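 SPR; Ab capture surface, ethanolamine-deactivated (1M, 420 s, 10 μl/min). Analyte: SIRP ECD+His, 2-fold dilution series in 1×HBS-EP+. Inject 300 s @ 30 μl/min; dissoc. 600 s.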

[2] = molecular target: T2, human SIRPγ extracellular domain + His-tag (NP_061026.2) (human, UniProt Q9P1W8 29-360); assay: SPR, Ab captured, ECD-His analyte
T2 construct: also called hSIRPγ; HuSIRPγ
How it was run: as §1

[3] = molecular target: T3, human SIRPαV2 extracellular domain + His-tag (CAA71403.1) (human, UniProt P78324 31-373); assay: SPR, Ab captured, ECD-His analyte
T3 construct: also called hSIRPαV2; HuSIRPαV2
How it was run: as §1

[4] = molecular target: T4, human SIRPβ1 extracellular domain + His-tag (NP_006056.2) (human, UniProt O00241 30-371); assay: SPR, Ab captured, ECD-His analyte
T4 construct: also called hSIRPβ1; HuSIRPβ1
How it was run: as §1

[5] = molecular target: T5, human SIRPβL/SIRPβ1v3 extracellular domain + His-tag (NP_001129316.1) (human, UniProt Q5TFQ8 30-371); assay: SPR, Ab captured, ECD-His analyte
T5 construct: also called hSIRPβ1v3; HuSIRPβ1v3
How it was run: as §1

[6] = molecular target: T6, full-length human SIRPβ1 (NP_006056.2) on cells (human, UniProt O00241 30-398); assay: flow cytometry, U937 SIRPα KO cells
T6 construct: on U937 SIRPα KO cells and Expi-CHO cells; also called β1 WT
Method: Antibody binding to cells expressing full-length human SIRPβ1 (NP_006056.2) and SIRPβL (NP_001129316.1) is evaluated by flow cytometry. SIRPβ1- or SIRPβL-expressing U937^{SIRPα KO} cells are blocked with donkey IgG and incubated on ice with increasing concentrations of antibodies for 60 minutes, washed and stained with AF647-conjugated donkey F(ab′)₂ anti-human IgG secondary reagent. Cells are washed, fixed, and analyzed by flow cytometry. Median fluorescent intensity is determined and used as a measure of antibody binding.

[7] = molecular target: T7, full-length human SIRPγ (NP_061026.2) on cells (human, UniProt Q9P1W8 29-387); assay: flow cytometry, primary human CD3+ T cells
T7 construct: on CHO and Expi-CHO cells; endogenous on primary human CD3+ T cells; also called γ WT
How it was run: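 PBMCs blocked with donkey IgG were incubated on ice for 60 min with increasing antibody concentrations, then detected with AF647 donkey F(ab′)₂ anti-human IgG. After fixation, median fluorescence intensity of the gated CD3+ population served as the binding measure.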

T1 sequence (P78324 other isoform, or with tags, fused parts or gaps): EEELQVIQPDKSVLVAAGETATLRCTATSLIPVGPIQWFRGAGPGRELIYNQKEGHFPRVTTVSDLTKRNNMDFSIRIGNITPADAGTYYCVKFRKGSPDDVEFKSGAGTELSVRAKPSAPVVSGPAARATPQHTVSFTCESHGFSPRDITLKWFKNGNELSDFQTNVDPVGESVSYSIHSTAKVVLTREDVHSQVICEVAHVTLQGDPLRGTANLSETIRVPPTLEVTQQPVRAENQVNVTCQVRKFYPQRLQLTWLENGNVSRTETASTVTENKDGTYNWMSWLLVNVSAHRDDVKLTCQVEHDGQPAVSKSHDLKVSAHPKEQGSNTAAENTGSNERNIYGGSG
T2 sequence (Q9P1W8 29-360): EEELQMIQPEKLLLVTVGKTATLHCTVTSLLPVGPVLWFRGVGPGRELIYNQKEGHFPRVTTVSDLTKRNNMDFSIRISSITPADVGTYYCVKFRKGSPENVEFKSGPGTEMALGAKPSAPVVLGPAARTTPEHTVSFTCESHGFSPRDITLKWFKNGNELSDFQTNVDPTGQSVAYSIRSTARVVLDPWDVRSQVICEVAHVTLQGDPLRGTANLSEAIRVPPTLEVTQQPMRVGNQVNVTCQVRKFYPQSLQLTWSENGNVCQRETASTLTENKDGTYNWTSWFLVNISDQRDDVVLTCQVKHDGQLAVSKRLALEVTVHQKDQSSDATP
T6 sequence (O00241 30-398): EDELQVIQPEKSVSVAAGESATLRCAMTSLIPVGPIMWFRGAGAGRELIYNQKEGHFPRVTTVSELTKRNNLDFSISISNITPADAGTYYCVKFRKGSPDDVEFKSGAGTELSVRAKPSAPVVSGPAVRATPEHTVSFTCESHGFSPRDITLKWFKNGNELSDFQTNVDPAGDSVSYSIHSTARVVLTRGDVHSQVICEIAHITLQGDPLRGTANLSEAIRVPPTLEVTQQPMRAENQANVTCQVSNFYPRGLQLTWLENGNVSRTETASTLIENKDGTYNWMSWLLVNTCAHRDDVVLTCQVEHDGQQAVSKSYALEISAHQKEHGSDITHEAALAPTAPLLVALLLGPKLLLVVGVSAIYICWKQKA
T7 sequence (Q9P1W8 29-387): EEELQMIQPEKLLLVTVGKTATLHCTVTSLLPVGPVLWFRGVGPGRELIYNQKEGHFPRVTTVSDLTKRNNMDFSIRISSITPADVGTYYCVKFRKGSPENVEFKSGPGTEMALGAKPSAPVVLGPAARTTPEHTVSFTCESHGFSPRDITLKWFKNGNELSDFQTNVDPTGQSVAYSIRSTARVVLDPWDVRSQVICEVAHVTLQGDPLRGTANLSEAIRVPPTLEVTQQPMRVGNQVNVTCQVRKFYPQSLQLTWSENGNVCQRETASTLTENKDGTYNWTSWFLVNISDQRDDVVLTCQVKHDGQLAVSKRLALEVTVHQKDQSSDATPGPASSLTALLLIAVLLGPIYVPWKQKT
T4 sequence (O00241 other isoform, or with tags, fused parts or gaps): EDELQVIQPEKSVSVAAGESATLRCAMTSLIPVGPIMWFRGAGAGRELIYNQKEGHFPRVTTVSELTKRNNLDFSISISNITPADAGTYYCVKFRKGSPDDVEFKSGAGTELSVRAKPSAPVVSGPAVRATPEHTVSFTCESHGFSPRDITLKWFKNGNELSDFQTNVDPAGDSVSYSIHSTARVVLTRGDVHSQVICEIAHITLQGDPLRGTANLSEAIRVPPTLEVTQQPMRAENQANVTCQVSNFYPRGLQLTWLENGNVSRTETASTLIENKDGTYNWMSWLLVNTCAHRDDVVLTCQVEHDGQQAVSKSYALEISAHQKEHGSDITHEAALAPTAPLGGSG
T5 sequence (Q5TFQ8 other isoform, or with tags, fused parts or gaps): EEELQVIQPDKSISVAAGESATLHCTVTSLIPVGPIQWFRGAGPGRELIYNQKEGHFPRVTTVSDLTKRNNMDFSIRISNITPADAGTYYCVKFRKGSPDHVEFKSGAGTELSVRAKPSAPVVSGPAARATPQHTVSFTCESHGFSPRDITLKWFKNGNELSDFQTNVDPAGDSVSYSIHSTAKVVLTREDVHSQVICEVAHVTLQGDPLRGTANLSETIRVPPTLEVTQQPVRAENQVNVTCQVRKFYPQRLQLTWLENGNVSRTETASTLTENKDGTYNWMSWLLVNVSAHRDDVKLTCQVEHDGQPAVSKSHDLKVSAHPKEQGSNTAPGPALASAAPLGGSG
T3 sequence (P78324 other isoform, or with tags, fused parts or gaps): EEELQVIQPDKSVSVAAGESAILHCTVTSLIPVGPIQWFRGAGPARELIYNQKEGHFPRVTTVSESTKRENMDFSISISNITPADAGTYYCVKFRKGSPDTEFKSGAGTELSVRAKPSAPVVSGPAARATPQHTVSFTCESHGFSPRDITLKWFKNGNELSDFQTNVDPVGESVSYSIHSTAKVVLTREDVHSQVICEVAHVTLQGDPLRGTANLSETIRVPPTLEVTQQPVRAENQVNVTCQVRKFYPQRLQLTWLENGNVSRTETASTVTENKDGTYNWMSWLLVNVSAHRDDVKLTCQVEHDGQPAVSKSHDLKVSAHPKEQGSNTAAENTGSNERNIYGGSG

Kd [1]: 1.57 nM
binding result [2]: no binding (tested: 1000 nM)
Kd [3]: 1.47 nM
binding result [4]: no binding (tested: 1000 nM)
Kd [5]: 3.19 nM
binding result [6]: no binding
binding result [7]: no binding
B1: Antibody E22 (antibody, human IgG1, kappa, L234A L235A, V domains shown)
VH: QVQLQESGPGLVKPSETLSLTCTVSGGSIRDYYWSWIRQPPGKGLEWIGFIYYNGRTFYQSSLKSRVTISLDTSKNQFSLKMTSVTAADTAVYYCARVRAYSGIGLDGTDVWGQGTTVTVSS
VL: DIVMTQSPLSLPVTPGEPASISCRSSQSLLYSTGYTYLDWYLQRPGQSPQLLIYGGSSRASGVPDRFSGSGSGTDFTLKISRVEAEDVGVFYCGQALQTPLTFGQGTKVEIKR
